B1: Aquaporin-2 (Mus musculus), P56402 (parent)
chain: MWELRSIAFSRAVLAEFLATLLFVFFGLGSALQWASSPPSVLQIAVAFGLGIGTLVQALGHVSGAHINPAVTVACLVGCHVSFLRAAFYVAAQLLGAVAGAAILHEITPVEIRGDLAVNALHNNATAGQAVTVELFLTMQLVLCIFASTDERRSDNLGSPALSIGFSVTLGHLLGIYFTGCSMNPARSLAPAVVTGKFDDHWVFWIGPLVGAVIGSLLYNYLLFPSTKSLQERLAVLKGLEPDTDWEEREVRRRQSVELHSPQSLPRGSKA

Variants of: B1
Conditions: with hsp71_canlf HSPA1, Q7YQC6
Sequence of hsp71_canlf HSPA1, Q7YQC6 (Q7YQC6 whole entry): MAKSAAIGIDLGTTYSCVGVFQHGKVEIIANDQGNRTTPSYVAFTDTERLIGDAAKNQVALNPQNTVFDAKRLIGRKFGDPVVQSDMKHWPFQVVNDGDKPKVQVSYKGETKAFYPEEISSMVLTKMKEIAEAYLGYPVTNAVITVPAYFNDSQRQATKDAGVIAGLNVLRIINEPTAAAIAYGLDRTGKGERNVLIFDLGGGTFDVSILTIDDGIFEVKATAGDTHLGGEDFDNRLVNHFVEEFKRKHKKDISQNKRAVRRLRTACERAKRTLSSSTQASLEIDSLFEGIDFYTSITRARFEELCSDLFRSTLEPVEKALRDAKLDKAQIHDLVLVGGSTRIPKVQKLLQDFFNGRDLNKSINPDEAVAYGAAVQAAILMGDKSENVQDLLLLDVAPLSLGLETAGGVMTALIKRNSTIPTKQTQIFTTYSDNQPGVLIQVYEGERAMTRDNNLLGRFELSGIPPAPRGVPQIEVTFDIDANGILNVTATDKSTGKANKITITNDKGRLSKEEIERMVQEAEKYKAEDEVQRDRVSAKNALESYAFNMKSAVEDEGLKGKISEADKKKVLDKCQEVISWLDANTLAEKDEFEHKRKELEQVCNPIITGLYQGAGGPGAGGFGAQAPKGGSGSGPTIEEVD

Row | effect of a mutation on the interaction | Variant
1 | decreasing interaction | MWELRSIAFSRAVLAEFLATLLFVFFGLGSALQWASSPPSVLQIAVAFGLGIGTLVQALGHVSGAHINPAVTVACLVGCHVSFLRAAFYVAAQLLGAVAGAAILHEITPVEIRGDLAVNALHNNATAGQAVTVELFLTMQLVLCIFASTDERRSDNLGSPALSIGFSVTLGHLLGIYFTGCSMNPARSLAPAVVTGKFDDHWVFWIGPLVGAVIGSLLYNYLLFPSTKSLQERLAVLKGLEPDTDWEEREVRRRQSVELHSPQSLPRGDKA [S269D]

Variants of: B1
Conditions: with anxa2_canlf ANXA2, Q6TEQ7
Sequence of anxa2_canlf ANXA2, Q6TEQ7 (Q6TEQ7 whole entry): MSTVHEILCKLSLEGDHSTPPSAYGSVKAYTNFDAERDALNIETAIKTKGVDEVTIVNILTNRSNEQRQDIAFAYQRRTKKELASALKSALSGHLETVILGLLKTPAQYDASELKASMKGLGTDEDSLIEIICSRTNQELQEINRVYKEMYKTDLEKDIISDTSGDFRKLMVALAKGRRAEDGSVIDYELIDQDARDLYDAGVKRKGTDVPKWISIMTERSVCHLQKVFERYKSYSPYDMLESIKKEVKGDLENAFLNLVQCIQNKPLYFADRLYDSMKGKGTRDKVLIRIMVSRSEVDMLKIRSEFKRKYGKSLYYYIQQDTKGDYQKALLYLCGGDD

Row | effect of a mutation on the interaction | Variant
2 | increasing interaction | MWELRSIAFSRAVLAEFLATLLFVFFGLGSALQWASSPPSVLQIAVAFGLGIGTLVQALGHVSGAHINPAVTVACLVGCHVSFLRAAFYVAAQLLGAVAGAAILHEITPVEIRGDLAVNALHNNATAGQAVTVELFLTMQLVLCIFASTDERRSDNLGSPALSIGFSVTLGHLLGIYFTGCSMNPARSLAPAVVTGKFDDHWVFWIGPLVGAVIGSLLYNYLLFPSTKSLQERLAVLKGLEPDTDWEEREVRRRQAVELHSPQSLPRGSKA [S256A]

Reference: IntAct's records for PubMed 19966308
